Data reported in paper PMC10541312 (The Journal of Experimental Medicine, 2023).

Assays:
Experiment in all cases: BLI; biotinylated CD123 ECD wt and variants captured on streptavidin biosensors; IL-3 as analyte, 500 to 7.8 nM in PBS pH7.4; association 300 s; steady-state analysis
Settings in all cases: both partners purified
[1] = target: T1, CD123 S59R ECD (amino acids 19–305), soluble protein (human, UniProt P26951 19-305, S59R, biotinylated (Biotinylation kit Type B) in the IL-3 BLI only)
T1 construct: human CD123 extracellular domain (ECD; amino acids 19–305); source: produced and purified by Icosagen
T1 sequence (looked up): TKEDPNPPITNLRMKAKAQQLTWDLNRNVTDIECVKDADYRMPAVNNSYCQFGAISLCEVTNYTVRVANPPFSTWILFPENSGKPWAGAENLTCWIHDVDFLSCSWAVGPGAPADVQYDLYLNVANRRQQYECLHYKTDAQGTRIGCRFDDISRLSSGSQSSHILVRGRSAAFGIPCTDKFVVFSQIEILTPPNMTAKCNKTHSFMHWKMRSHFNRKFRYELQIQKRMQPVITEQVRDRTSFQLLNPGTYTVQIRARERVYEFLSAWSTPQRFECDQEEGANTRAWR

[2] = target: T2, CD123 S59P ECD (amino acids 19–305), soluble protein (human, UniProt P26951 19-305, S59P, biotinylated (Biotinylation kit Type B) in the IL-3 BLI only)
T2 construct: human CD123 extracellular domain (ECD; amino acids 19–305); source: produced and purified by Icosagen
T2 sequence (looked up): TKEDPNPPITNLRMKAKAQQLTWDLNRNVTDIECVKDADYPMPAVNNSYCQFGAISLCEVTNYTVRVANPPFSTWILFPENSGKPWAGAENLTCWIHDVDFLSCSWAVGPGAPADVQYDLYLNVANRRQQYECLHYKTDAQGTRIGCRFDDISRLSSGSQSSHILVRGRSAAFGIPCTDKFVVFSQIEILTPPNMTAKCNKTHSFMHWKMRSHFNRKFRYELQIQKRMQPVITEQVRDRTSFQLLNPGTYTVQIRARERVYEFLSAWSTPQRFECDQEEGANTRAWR

[3] = target: T3, CD123 S59E ECD (amino acids 19–305), soluble protein (human, UniProt P26951 19-305, S59E, biotinylated (Biotinylation kit Type B) in the IL-3 BLI only)
T3 construct: human CD123 extracellular domain (ECD; amino acids 19–305); source: produced and purified by Icosagen
T3 sequence (looked up): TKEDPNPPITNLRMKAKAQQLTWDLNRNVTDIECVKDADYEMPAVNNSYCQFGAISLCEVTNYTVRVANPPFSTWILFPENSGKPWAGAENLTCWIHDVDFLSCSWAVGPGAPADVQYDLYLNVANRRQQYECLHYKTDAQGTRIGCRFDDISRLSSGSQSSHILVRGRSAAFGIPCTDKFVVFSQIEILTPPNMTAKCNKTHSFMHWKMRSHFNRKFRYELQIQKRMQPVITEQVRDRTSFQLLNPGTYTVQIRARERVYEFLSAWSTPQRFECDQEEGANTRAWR

[4] = target: T4, CD123 S59Y ECD (amino acids 19–305), soluble protein (human, UniProt P26951 19-305, S59Y, biotinylated (Biotinylation kit Type B) in the IL-3 BLI only)
T4 construct: human CD123 extracellular domain (ECD; amino acids 19–305); source: produced and purified by Icosagen
T4 sequence (looked up): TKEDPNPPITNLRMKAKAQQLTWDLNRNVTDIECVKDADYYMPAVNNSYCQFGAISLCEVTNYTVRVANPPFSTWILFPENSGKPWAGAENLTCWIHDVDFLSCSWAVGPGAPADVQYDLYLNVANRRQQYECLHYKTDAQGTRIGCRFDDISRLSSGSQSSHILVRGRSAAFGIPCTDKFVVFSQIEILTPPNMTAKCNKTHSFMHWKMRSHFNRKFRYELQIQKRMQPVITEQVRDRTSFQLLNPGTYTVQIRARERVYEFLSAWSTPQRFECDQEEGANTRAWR

[5] = target: T5, CD123 E51Q ECD (amino acids 19–305), soluble protein (human, UniProt P26951 19-305, E51Q, biotinylated (Biotinylation kit Type B) in the IL-3 BLI only)
T5 construct: human CD123 extracellular domain (ECD; amino acids 19–305); source: produced and purified by Icosagen
T5 sequence (looked up): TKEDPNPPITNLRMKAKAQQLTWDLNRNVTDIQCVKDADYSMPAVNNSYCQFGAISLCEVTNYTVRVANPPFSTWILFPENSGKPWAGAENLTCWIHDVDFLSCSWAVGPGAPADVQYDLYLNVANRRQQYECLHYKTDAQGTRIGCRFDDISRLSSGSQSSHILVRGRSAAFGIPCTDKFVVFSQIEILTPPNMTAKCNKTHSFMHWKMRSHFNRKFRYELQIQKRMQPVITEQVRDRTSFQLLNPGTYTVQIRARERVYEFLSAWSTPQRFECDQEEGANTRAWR

[6] = target: T6, CD123 R84E ECD (amino acids 19–305), soluble protein (human, UniProt P26951 19-305, R84E, biotinylated (Biotinylation kit Type B) in the IL-3 BLI only)
T6 construct: human CD123 extracellular domain (ECD; amino acids 19–305); source: produced and purified by Icosagen
T6 sequence (looked up): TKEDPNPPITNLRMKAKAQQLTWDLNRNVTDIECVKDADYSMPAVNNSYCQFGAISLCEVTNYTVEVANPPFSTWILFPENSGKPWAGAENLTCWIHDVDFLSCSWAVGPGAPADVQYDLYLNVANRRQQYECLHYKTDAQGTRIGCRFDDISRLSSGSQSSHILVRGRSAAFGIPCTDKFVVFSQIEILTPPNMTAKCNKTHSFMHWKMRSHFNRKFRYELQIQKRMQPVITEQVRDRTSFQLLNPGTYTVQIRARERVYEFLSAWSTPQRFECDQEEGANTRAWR

Measured: binding result

B1: IL-3 (ligand, human, UniProt P08700 20-152, looked up)
chain: APMTQTTPLKTSWVNCSNMIDEIITHLKQPPLPLLDFNNLNGEDQDILMENNLRRPNLEAFNRAVKSLQNASAIESILKNLLPCLPLATAAPTRHPIHIKDGDWNEFRRKLTFYLKTLENAQAQQTTLSLAIF
notes: human interleukin-3, recombinant, Sino Biological PN 11858-H08H; also called interleukin-3; human IL-3; source: bought: Sino Biological (PN 11858-H08H)
binds: [1] | [2] | [3] | [4] | [5] | [6]
